These results are taken from article PMC4077652, “An Unstable Th Epitope of P. falciparum Fosters Central Memory T Cells and Anti-CS Antibody Responses” (PLoS ONE, 2014).

The labels stand for the following.
B1: unnamed (parent)
chain 1: QNSLSTEWSPCSVT
chain 2: not shown
chain 3: not shown

In this experiment the parent is B1. The experiment can be described thus: binding inhibition (competition) assay with biotin-labeled HA 306-318. Conditions: peptides tested at 0 to 100 µM, read off a plot.
Usually IC50 stands for the midpoint of a concentration-inhibition curve. Turning to chain 1 C11A, the half-maximal inhibitory concentration (IC50) is 800 nM.
Then chain 1 N2A, with 2700 nM.
For the variant chain 1 V13A, the IC50 came to 500 nM.
Then chain 1 T6A, with 1300 nM; and chain 1 P10A, with 7800 nM.
Consider chain 1 S12A, for which the IC50 is 800 nM.
The figure for chain 1 T14A is 800 nM.
Turning to chain 1 S3A, the IC50 stood at 1100 nM.
Turning to chain 1 W8A, the IC50 amounted to 1500 nM.
Then chain 1 E7A, with 3500 nM; and chain 1 S5A, with 950 nM; and chain 1 Q1A, with 1200 nM.
